The values that follow come from publication doi:10.1101/467431.

The target of this assay is Sca2 full-length passenger domain, construct Sca_(34-1515) (Rickettsia conorii) (UniProt Q92JF7). The assay is described as follows: ITC.

As to “monomeric actin (LatB-actin) (from UniProt P68135 1-377) (natural protein)”, the KD1 (two-site binding model) is 0.19 µM, the KD2 (two-site binding model) came to 0.02 µM, the N of the single site model (called unrealistic) was 0.6 and the stoichiometry N (actin subunits per Sca (34-1515)) amounted to 2.
